Assay type in all cases: cell-based
One series has as its system human sperm. Put plainly: Velocity test on human spermatozoa treated with the peptide (computer-assisted motility analysis, CASA). From the text: (§1) Human sperm were obtained from patient consulting at the fertility department of Grenoble, following approval by the ethical committee and informed consent from the patients. All patients gave an informed consent for the conservation of the remnant sperm in the Germetheque biobank and their use in studies on human fertility in accordance with the Helsinki Declaration of 1975 on human experimentation. The Germetheque Scientific Committee approved the present study design. Ejaculate was liquefied at 37° C. for 30 min and sperm were washed twice in Sperm Preparation Medium (Origio, Målov, Denmark) at 500 g for 5 min. Concentration is then adjusted for CASA analysis. Sperm were also frozen with SpermFreeze (Fertipro NV, Beernem, Belgium) for further analysis as frozen sperm.
(§2) After 10 minutes incubation with the peptide according to SEQ ID NO. 1 (natural, or synthesized), the sperm suspension was immediately placed onto an analysis chamber (Leja Products B.V., Netherlands) of 100 μm depth for mouse sperm and 20 μm depth for human, NHP and bovine sperm, and kept at 37° C. for microscopic quantitative study of sperm movement. Sperm motility parameters were measured at 37° C. using a sperm analyzer (Hamilton Thorn Research, Beverley). The settings employed for analysis were as follows for human, NHP, bovine and mouse respectively: acquisition rate (60;60;60;60) Hz; number of frames: (30;20;30;45); minimum contrast: (80;80;80;50); minimum cell size: (3;4;5;5); low static-size gate: (0,85;0,79;0,1;0,3); high static-size gate: (4,24;2,52;3,4;1,95); low static-intensity gate: (0,39;0,62;0,3;0,5); high static-intensity gate: (1,4;1,4;1,7;1,3); minimum elongation gate: (0;2;8;0); maximum elongation gate: (85;50;97;87); magnification factor: (1,89;1,89;1,89;0,7). The motility parameters measured were curvilinear velocity (VCL) and amplitude of lateral head displacement (ALH). A minimum of 100 motile spermatozoa was analyzed for each assay. Motile sperm were defined by VAP>(1;1;1;1) and progressive sperm were defined by VAP>(25;25;50;30) and STR>(80;80;70;70).

Series [1] relates to mouse oocytes and capacitated sperm. As to the kind of experiment: Fertilization study in mice (in vitro fertilization, 2-cell embryos scored). The procedure: Eggs were collected from mature OF1 females, synchronized with 5 units of pregnant mare serum gonadotrophin (PMSG) and 5 units of human chorionic gonadotrophin (hCG). Sperm were capacitated for 55 minutes in M16 2% BSA (37° C., 5% CO2) and introduced into droplets containing oocytes. The active peptide was introduced into droplets at the same time. Oocytes were incubated with 1.5×10^5 to 5×10^5 capacitated sperm/ml (37° C., 5% CO2) in M16 medium and unbound sperm were washed away after 4 hours incubation. Twenty-four hours after fertilization, the different stages, i.e. unfertilized oocytes (including aborted embryos and corresponding to fragmented oocytes or oocytes blocked after the extrusion of the second polar body) and 2-cell embryos (as an indication of successful fertilization) were scored.

In series [2] the test system is testicular sperm from macaca. As to the kind of experiment: Motility activation in testicular sperm from Macaca (CASA). The note with it: non-human primate testicular sperm, FIGS. 3 and 4. Here is the method: FIG. 3: Measurement of motile cells and progressive cells after incubation of testicular sperm from macaca (non-human primate) with (7.8 Kda peptide) and without (Control) peptide SEQ ID NO. 1. Motile sperm and progressive sperm were characterized by VAP>1 μm/s and VAP>30 μm/s and STR>70%, respectively. STR=VSL/VAP. Statistical analyses were performed with SigmaPlot. t tests were used to compare the effects of La1-like peptide on sperm motility parameters. Data represent mean±SEM. Statistical tests with a 2-tailed P values 0.05 were considered significant. […]
After 10 minutes incubation with the peptide according to SEQ ID NO. 1 (natural, or synthesized), the sperm suspension was immediately placed onto an analysis chamber (Leja Products B.V., Netherlands) of 100 μm depth for mouse sperm and 20 μm depth for human, NHP and bovine sperm, and kept at 37° C. for microscopic quantitative study of sperm movement. Sperm motility parameters were measured at 37° C. using a sperm analyzer (Hamilton Thorn Research, Beverley). […] The motility parameters measured were curvilinear velocity (VCL) and amplitude of lateral head displacement (ALH). A minimum of 100 motile spermatozoa was analyzed for each assay. […]
Macaca testes were collected after euthanasia. […] 1, sperm motility was measured using the same conditions as those in Example 2.

The next series concerns human ejaculated sperm. Put plainly: Motility of fresh and frozen human ejaculated sperm incubated with the peptide (Example 5, FIG. 5). Here is the method:
FIG. 5: Measurement of % motile cells and progressive cells after incubation of fresh (left hand panel) and frozen (right hand panel) human ejaculated sperm with (7.8 kDa peptide) or without (Control) the peptide according to SEQ ID NO. 1. Motile sperm and progressive sperm were characterized by VAP>1 μm/s and VAP>30 μm/s and STR>70%, respectively. STR=VSL/VAP. Statistical analyses were performed with SigmaPlot. t tests were used to compare the effects of La1-like peptide on sperm motility parameters. Data represent mean±SEM. Statistical tests with a 2-tailed P values≤0.05 were considered significant.
as §1, §2

The subject of series [3] is sperm. As to the kind of experiment: Toxicity on sperm (sperm vitality). The procedure:
Forty μL of sperm were mixed with 20 μL of eosin 1% diluted in NaCl 9/1000 and 20 μL of nigrosine 10% diluted in NaCl 9/1000. Sperm were then layered onto glass slide and dried. A minimum of 100 spermatozoa was analyzed for each assay.

Series [4] has as its system sperm. As to the kind of experiment: Sperm motility tests by the applicants (comparison with papaverine, duration of effect, synthetic versus venom peptide).
[5] abbreviates: fresh human sperm samples, FIG. 5 left-hand panel.
Where [6] appears, read: frozen human sperm samples, FIG. 5 right-hand panel.

B1: La-1-like peptide (peptide)
chain: SGESCKAGKFTVLVGHQQNDKSTCTLYKCLNFKRKYALQISSCADVDLKSGCRQVPGAASANFPECCPMVICK
modifications: S Maurus palmatus
Take B1: the “sperm motility after incubation” value with human sperm (human sperm, incubation with peptide, FIG. 2B) is given as “increase in sperm motility”. Moreover, the “increase in lateral amplitude (ALH)” value in the series on human sperm (initial lateral amplitude of less than 3.5 μm versus higher initial ALH values) is “greater increases”. Besides, the “increase in motility (VAP)” value with human sperm (sperm having an initial VAP of 60 μm/s) is “about 20%”. In the series on human sperm (sperm having low initial path velocity (VAP)), the “increase in path velocity (VAP)” value is listed as “up to 80%”. For the same molecule, in the series with human sperm (sperm with low initial track speed compared to higher initial track speeds, FIG. 2B upper left panel), the “motility activation with respect to initial track speed (VCL)” value was “higher motility activation”. Also, the toxicity result in series [1] is “not toxic”. Further, the “increase of rate of fertilization compared to the control” value in series [1] (number of embryos at the two cell stage) was “approximately 20%”. The embryo development entry in series [1] (two cell stage) is listed as “does not prevent embryo development”. In addition, in series [2], the “non-progressive velocity of sperm cells” value is reported as “increase” and the “progressive velocity of sperm cells” value is reported as “increase”. Further, in the series on human ejaculated sperm (setting [5]), the non-progressive motility entry is reported as “increases” and the progressive motility entry is on record as “increases”. Also, in the series on human ejaculated sperm (setting [6]), the non-progressive motility result was “increases” and the progressive motility result is listed as “increases”. In the series with human ejaculated sperm (human sperm), the “effect on motility, frozen samples versus fresh samples” value is “greater for the frozen samples”. Moreover, the toxicity on sperm result in the series on sperm [3] was “no toxicity”. In the series on sperm [4], the “duration of effect on sperm motility” value is reported as “long lasting effect”. Besides, the comparison with papaverine entry in the series with sperm [4] (compared to papaverine) is recorded as “superiority”. Also, the “biological activity of synthesized peptide versus peptide isolated from venom” value in the series with sperm [4] (peptide synthesized using Native Chemical Ligation Strategy) is “retains the biological activity”.
